Results reported in patent US20250197490A1 (HBM ALPHA THERAPEUTICS, published 2025).
Several values for one entry are separate records, joined by “and”; a condition that tells them apart may be missing. Identical values can stand only once.

T1: corticotropin-releasing hormone (CRH) peptide (human and mouse, UniProt P01143 145-185 (rat entry), not fully specified)
T1 peptide: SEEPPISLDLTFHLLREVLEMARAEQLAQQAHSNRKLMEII


Molecular target: T1, corticotropin-releasing hormone (CRH) …
Assay: cell-based or functional assay

Row | Binder | hCRHR1-Luc 0.5 nM CRH IC50
1 | PR302341-14 (antibody, human IgG1, kappa, V domains shown) VH: QVQLVQSGAEVKKPGASVKVSCKASGYTFTDYFMKWVRQAPGQGLEWMGVINPNNGDIFYNQKFKGRVTMTVDKSTSTAYMELSSLRSEDTAVYYCARGTDRALFAYWGQGTLVTVSS VL: DVLMTQTPLSLPVSLGDQASISCRSGQSIVHSDGNTYLEWYLQRPGQSPRLLIYKVSNRFSGVPDRFSGSGSGTDFTLKISRVGAEDLGIYYCFQGSHIPWTFGGGTKLEVKR | 0.075 nM
2 | PR302341-21 (antibody, human IgG1, kappa, V domains shown) VH: QVQLVQSGAEVKKPGASVKVSCKASGYTFTDYFMKWVRQAPGQRLEWMGVINPNNGDIFYNQKFKGRVTITVDKSASTAYMELSSLRSEDTAVYYCARGTDRALFAYWGQGTLVTVSS VL: DVVMTQSPLSLPVTLGQPASISCRSGQSIVHSDGNTYLEWYQQRPGQSPRLLIYKVSNRFSGVPDRFSGSGSGTDFTLKISRVEAEDLGVYYCFQGSHIPWTFGGGTKVEIKR | 0.177 nM
3 | PR302341-16 (antibody, human IgG1, kappa, V domains shown) VH: QVQLVQSGAEVKKPGASVKVSCKASGYTFTDYFMKWVRQAPGQRLEWMGVINPNNGDIFYNQKFKGRVTITVDKSASTAYMELSSLRSEDTAVYYCARGTDRALFAYWGQGTLVTVSS VL: DVLMTQTPLSLPVSLGDQASISCRSGQSIVHSDGNTYLEWYLQRPGQSPRLLIYKVSNRFSGVPDRFSGSGSGTDFTLKISRVGAEDLGIYYCFQGSHIPWTFGGGTKLEVKR | 0.225 nM
4 | PR302341-19 (antibody, human IgG1, kappa, V domains shown) VH: QVQLVQSGAEVKKPGASVKVSCKASGYTFTDYFMKWVRQAPGQGLEWMGVINPNNGDIFYNQKFKGRVTMTRDTSTSTVYMELSSLRSEDTAVYYCARGTDRALFAYWGQGTLVTVSS VL: DVVMTQSPLSLPVTLGQPASISCRSGQSIVHSDGNTYLEWYQQRPGQSPRLLIYKVSNRFSGVPDRFSGSGSGTDFTLKISRVEAEDLGVYYCFQGSHIPWTFGGGTKVEIKR | 0.121 nM
5 | PR302341-15 (antibody, human IgG1, kappa, V domains shown) VH: QVQLVQSGAEVKKPGASVKVSCKASGYTFTDYFMKWVRQAPGQRLEWMGVINPNNGDIFYNQKFKGRVTITRDTSASTAYMELSSLRSEDTAVYYCARGTDRALFAYWGQGTLVTVSS VL: DVLMTQTPLSLPVSLGDQASISCRSGQSIVHSDGNTYLEWYLQRPGQSPRLLIYKVSNRFSGVPDRFSGSGSGTDFTLKISRVGAEDLGIYYCFQGSHIPWTFGGGTKLEVKR | 0.124 nM
6 | PR302341-4 (antibody, human IgG1, kappa, V domains shown) VH: EVQLQQSGPELVKPGASVKMSCKASGYTFTDYFMKWVKQSHGESLEWIGVINPNNGDIFYNQKFKGKATLTVDKSSSTAFMQLNSLTSEDSAVYSCARGTDRALFAYWGQGTLVAVSA VL: DVVMTQTPLSSPVTLGQPASISCRSGQSIVHSDGNTYLEWYQQRPGQPPRLLIYKVSNRFSGVPDRFSGSGAGTDFTLKISRVEAEDLGVYYCFQGSHIPWTFGGGTKVEIKR | 0.107 nM
7 | PR302341-13 (antibody, human IgG1, kappa, V domains shown) VH: QVQLVQSGAEVKKPGASVKVSCKASGYTFTDYFMKWVRQAPGQGLEWMGVINPNNGDIFYNQKFKGRVTMTRDTSTSTVYMELSSLRSEDTAVYYCARGTDRALFAYWGQGTLVTVSS VL: DVLMTQTPLSLPVSLGDQASISCRSGQSIVHSDGNTYLEWYLQRPGQSPRLLIYKVSNRFSGVPDRFSGSGSGTDFTLKISRVGAEDLGIYYCFQGSHIPWTFGGGTKLEVKR | 0.124 nM
8 | PR302341-10 (antibody, human IgG1, kappa, V domains shown) VH: QVQLVQSGAEVKKPGASVKVSCKASGYTFTDYFMKWVRQAPGQGLEWMGVINPNNGDIFYNQKFKGRVTMTVDKSTSTAYMELSSLRSEDTAVYYCARGTDRALFAYWGQGTLVTVSS VL: DVVMTQTPLSSPVTLGQPASISCRSGQSIVHSDGNTYLEWYQQRPGQPPRLLIYKVSNRFSGVPDRFSGSGAGTDFTLKISRVEAEDLGVYYCFQGSHIPWTFGGGTKVEIKR | 0.11 nM
9 | PR302341-11 (antibody, human IgG1, kappa, V domains shown) VH: QVQLVQSGAEVKKPGASVKVSCKASGYTFTDYFMKWVRQAPGQGLEWMGVINPNNGDIFYNQKFKGRVTMTVDKSTSTAYMELSSLRSEDTAVYYCARGTDRALFAYWGQGTLVTVSS VL: DIVMTQTPLSLSVTPGQPASISCRSGQSIVHSDGNTYLEWYLQKPGQSPQLLIYKVSNRFSGVPDRFSGSGSGTDFTLKISRVEAEDVGVYYCFQGSHIPWTFGGGTKVEIKR | 0.467 nM
10 | PR302341-9 (antibody, human IgG1, kappa, V domains shown) VH: QVQLVQSGAEVKKPGASVKVSCKASGYTFTDYFMKWVRQAPGQGLEWMGVINPNNGDIFYNQKFKGRVTMTVDKSTSTAYMELSSLRSEDTAVYYCARGTDRALFAYWGQGTLVTVSS VL: DIVMTQTPLSSPVTLGQPASISCRSGQSIVHSDGNTYLEWLQQRPGQPPRLLIYKVSNRFSGVPDRFSGSGAGTDFTLKISRVEAEDVGVYYCFQGSHIPWTFGGGTKVEIKR | 0.234 nM

Further lines, results first:

Row | hCRHR1-Luc 0.5 nM CRH IC50 | Binder
11 | 0.139 nM and 0.231 nM | PR302341 (antibody, human IgG1, kappa, V domains shown) VH: EVQLQQSGPELVKPGASVKMSCKASGYTFTDYFMKWVKQSHGESLEWIGVINPNNGDIFYNQKFKGKATLTVDKSSSTAFMQLNSLTSEDSAVYSCARGTDRALFAYWGQGTLVAVSA VL: DVLMTQTPLSLPVSLGDQASISCRSGQSIVHSDGNTYLEWYLQRPGQSPRLLIYKVSNRFSGVPDRFSGSGSGTDFTLKISRVGAEDLGIYYCFQGSHIPWTFGGGTKLEVKR
12 | 0.162 nM | PR302341-20 (antibody, human IgG1, kappa, V domains shown) VH: QVQLVQSGAEVKKPGASVKVSCKASGYTFTDYFMKWVRQAPGQRLEWMGVINPNNGDIFYNQKFKGRVTITRDTSASTAYMELSSLRSEDTAVYYCARGTDRALFAYWGQGTLVTVSS VL: DVVMTQSPLSLPVTLGQPASISCRSGQSIVHSDGNTYLEWYQQRPGQSPRLLIYKVSNRFSGVPDRFSGSGSGTDFTLKISRVEAEDLGVYYCFQGSHIPWTFGGGTKVEIKR
13 | 0.165 nM | PR302341-8 (antibody, human IgG1, kappa, V domains shown) VH: QVQLVQSGAEVKKPGASVKVSCKASGYTFTDYFMKWVRQAPGQGLEWMGVINPNNGDIFYNQKFKGRVTMTVDKSTSTAYMELSSLRSEDTAVYYCARGTDRALFAYWGQGTLVTVSS VL: DVVMTQSPLSLPVTLGQPASISCRSGQSIVHSDGNTYLEWYQQRPGQSPRLLIYKVSNRFSGVPDRFSGSGSGTDFTLKISRVEAEDLGVYYCFQGSHIPWTFGGGTKVEIKR
14 | 0.397 nM | PR302341-1 (antibody, human IgG1, kappa, V domains shown) VH: EVQLQQSGPELVKPGASVKMSCKASGYTFTDYFMKWVKQSHGESLEWIGVINPNNGDIFYNQKFKGKATLTVDKSSSTAFMQLNSLTSEDSAVYSCARGTDRALFAYWGQGTLVAVSA VL: DVVMTQSPLSLPVTLGQPASISCRSGQSIVHSDGNTYLEWFQQRPGQSPRRLIYKVSNRFSGVPDRFSGSGSGTDFTLKISRVEAEDVGVYYCFQGSHIPWTFGGGTKVEIKR
15 | 0.168 nM | PR302341-2 (antibody, human IgG1, kappa, V domains shown) VH: EVQLQQSGPELVKPGASVKMSCKASGYTFTDYFMKWVKQSHGESLEWIGVINPNNGDIFYNQKFKGKATLTVDKSSSTAFMQLNSLTSEDSAVYSCARGTDRALFAYWGQGTLVAVSA VL: DVVMTQSPLSLPVTLGQPASISCRSGQSIVHSDGNTYLEWYQQRPGQSPRLLIYKVSNRFSGVPDRFSGSGSGTDFTLKISRVEAEDLGVYYCFQGSHIPWTFGGGTKVEIKR
16 | 0.73 nM | PR302341-5 (antibody, human IgG1, kappa, V domains shown) VH: EVQLQQSGPELVKPGASVKMSCKASGYTFTDYFMKWVKQSHGESLEWIGVINPNNGDIFYNQKFKGKATLTVDKSSSTAFMQLNSLTSEDSAVYSCARGTDRALFAYWGQGTLVAVSA VL: DIVMTQTPLSLSVTPGQPASISCRSGQSIVHSDGNTYLEWYLQKPGQSPQLLIYKVSNRFSGVPDRFSGSGSGTDFTLKISRVEAEDVGVYYCFQGSHIPWTFGGGTKVEIKR
17 | 0.128 nM | PR302341-3 (antibody, human IgG1, kappa, V domains shown) VH: EVQLQQSGPELVKPGASVKMSCKASGYTFTDYFMKWVKQSHGESLEWIGVINPNNGDIFYNQKFKGKATLTVDKSSSTAFMQLNSLTSEDSAVYSCARGTDRALFAYWGQGTLVAVSA VL: DIVMTQTPLSSPVTLGQPASISCRSGQSIVHSDGNTYLEWLQQRPGQPPRLLIYKVSNRFSGVPDRFSGSGAGTDFTLKISRVEAEDVGVYYCFQGSHIPWTFGGGTKVEIKR
18 | 0.363 nM | PR302341-6 (antibody, human IgG1, kappa, V domains shown) VH: EVQLQQSGPELVKPGASVKMSCKASGYTFTDYFMKWVKQSHGESLEWIGVINPNNGDIFYNQKFKGKATLTVDKSSSTAFMQLNSLTSEDSAVYSCARGTDRALFAYWGQGTLVAVSA VL: DVVMTQTPLSLSVTPGQPASISCRSGQSIVHSDGNTYLEWYLQKPGQSPQLLIYKVSNRFSGVPDRFSGSGSGTDFTLKISRVEAEDLGVYYCFQGSHIPWTFGGGTKVEIKR
19 | 0.23 nM | PR302341-7 (antibody, human IgG1, kappa, V domains shown) VH: QVQLVQSGAEVKKPGASVKVSCKASGYTFTDYFMKWVRQAPGQGLEWMGVINPNNGDIFYNQKFKGRVTMTVDKSTSTAYMELSSLRSEDTAVYYCARGTDRALFAYWGQGTLVTVSS VL: DVVMTQSPLSLPVTLGQPASISCRSGQSIVHSDGNTYLEWFQQRPGQSPRRLIYKVSNRFSGVPDRFSGSGSGTDFTLKISRVEAEDVGVYYCFQGSHIPWTFGGGTKVEIKR
20 | 0.25 nM | PR302341-12 (antibody, human IgG1, kappa, V domains shown) VH: QVQLVQSGAEVKKPGASVKVSCKASGYTFTDYFMKWVRQAPGQGLEWMGVINPNNGDIFYNQKFKGRVTMTVDKSTSTAYMELSSLRSEDTAVYYCARGTDRALFAYWGQGTLVTVSS VL: DVVMTQTPLSLSVTPGQPASISCRSGQSIVHSDGNTYLEWYLQKPGQSPQLLIYKVSNRFSGVPDRFSGSGSGTDFTLKISRVEAEDLGVYYCFQGSHIPWTFGGGTKVEIKR
21 | 0.192 nM | PR302341-24 (antibody, human IgG1, kappa, V domains shown) VH: QVQLVQSGAEVKKPGASVKVSCKASGYTFTDYFMKWVRQAPGQRLEWMGVINPNNGDIFYNQKFKGRVTITVDKSASTAYMELSSLRSEDTAVYYCARGTDRALFAYWGQGTLVTVSS VL: DVVMTQTPLSSPVTLGQPASISCRSGQSIVHSDGNTYLEWYQQRPGQPPRLLIYKVSNRFSGVPDRFSGSGAGTDFTLKISRVEAEDLGVYYCFQGSHIPWTFGGGTKVEIKR
